Series [1] addresses T1, β-casein (f193-209).
T1 chain: YQEPVLGPVRGPFPIIV

The target in series [2] is T2, αS1-casein (f1-9).
T2 chain: RPKHPIKHQ

For series [3], the system named is T3, αS1-casein (f1-9).
T3 sequence: RPKHPIKHQ
This is another data set of the same source.

Series [4] relates to T4, β-casein (f193-209).
T4 sequence: YQEPVLGPVRGPFPIIV
This is another data set of the same source.

Where two headings read alike, the source gives them in different places.

These results are taken from patent US20050281914.

B1: Lactobacillus helveticus CNRZ32 endopeptidase PepE2 (protein)
chain: MKHELTMAEIAKFQQEYKKEPQNRVAELAVVNNGVQKASFNTEGIRKLNRTFSIEIPTDNVTDQKQSGRCWLFAALNTLRHGFAKKYNTKNFTFSQNYLFFWDRVERANIFFDNILNTADKPLGDRTVHTYMQGPDADGGQWAMAVSLIRKYGLVPTYAQEESFTANNTAAFNRALNMKLREDGLILRKLAKENKTDEIETKRQEFLSEVYRMAVIAFGEPVQKFDLEFKDDDGKYHFDGDLTPLDFFHNYFTDDLDDYIVLFNAPDHEFDKLYALPFEDNVEGGTPVQFLNTEIDNLKEAAIKQLEAGETIWFGCDVGKDSDRQKGILSKGLYQTDTIFNIETKLSKKERLQTGASGSTHAMTLVGVDVVDGKPRQWKIENSWGAKVGEKGYFVMDDDWFNEYLFKVVVKKQYVPDKLVKIWEGEATPVEAWDSMA
B1: the “hydrolysis under simulated cheese ripening conditions” value with β-casein (f193-209) [1] and with αS1-casein (f1-9) [2] was “No hydrolysis of either peptide was detected after incubation with CFE from E. coli transformed with pepE2” throughout.

B2: Lactobacillus helveticus CNRZ32 endopeptidase PepF (protein)
chain: MAIPTRSEVPEDLKWDLTRIFKTDQDWENAFDKAKDDVAKLSELKGSLAKSGKDLYEGLTKILAVKRDVENIYVYATMSSDVDTSNSHYLGYVSRVQSLSNQFEATTSFINPEILSIPAEKFEQFKKDEPRLADYAHYLEMITNKRPHTLPAEEEKIIADAGDAMSVSENTFNVLTNSDMEYGYVQDEDGNMEQLSNGLYSLLIQSQNRDVRKGAFNTLYASYGQFQNSLASTLSGVVKKHNYNARMHKYDSAREAALADNGVPVEVYDTLIKEVDSHLDLLHRYVALRKKILGLKDLQMWDMYVPLTGKPALSYNFEEAKKVAKEAMKPLGEDYLKHVDYIFNNRVIDPVESKGKVTGAYSGGAYDTDPYELLNWEDNIDSLYTLVHETGHSVHSWYTRHSQPYIYGNYPIFVAEIASTTNENILTEYFLDHITDPKTRAFILNHYLDSFKGTLFRQTQFAVFEQFIHEADAKGEPLTADILDDVYGQINQHYYGDSVEPGGDIALEWSRIPHFYYNFYVYQYATGFAAATALANKVVHGSQADRDAYLGYLKSGSSDYPTEIMKRAGVDMTKPDYLKDAFKTFEKRLNEFESLIGK
In the series with β-casein (f193-209) [1], B2 registered a Specific activity (E. coli CFE) (nmoles substrate hydrolyzed/h/mg protein) of 14 and a Specific activity (E. coli CFE, control subtracted) (nmoles substrate hydrolyzed/h/mg protein) of 14. The “Specific activity (E. coli CFE)” value with αS1-casein (f1-9) [2] is recorded as “-”.

B3: Lactobacillus helveticus CNRZ32 PepE expressed as PpepO3:pepE translational fusion in Lactococcus lactis LM0230 (pSUW666) (enzyme, UniProt P94870 1-438, looked up)
Aminopeptidase E: MAHELTVQELEKFSADFNKNPKNKVVARAAQRSGVLEASYNDRVQSELTRVFSTELDTDNVTNQKHSGRCWLFATLNVLRHEFGKKYKAKDFTFSQAYNFFWDKIERANMFYNRILDSADMPLDSRQVKTDLDFAGTDGGQFQMAAALVEKYGVVPSYAMPETFNTNDTTGFATALGDKLKKDALVLRKLKQEGKDDEIKKTREKFLSEVYQMTAIAVGEPPKKFDLEYRDDDKKYHLEKDLTPLEFLHKYLGGVDFDDYVVLTNAPDHEYDKLYGLPAEDNVSGSIRIKLLNVPMEYLTAASIAQLKDGEAVWFGNDVLRQMDRKTGYLDTNLYKLDDLFGVDLKMSKADRLKTGVGEVSHAMTLVGVDEDNGEVRQWKVENSWGDKSGAKGYYVMNNEWFNDYVYEVVVHKKYLTDKQKELAEGPITDLPAWDSLA
modifications: PpepO3 fusion junction residues; expressed in Lactococcus
B3: in the series with αS1-casein (f1-9) [3], the “Specific activity (Lc. lactis CFE), Cheddar cheese serum” value is listed as 31 (17)^c, C; the “Specific activity (Lc. lactis CFE), defined peptide mix” value is 120 (7)^a, B; the “Specific activity (Lc. lactis CFE), individual peptide reaction” value is reported as 190 (14)^a, A; the “relative activity in the defined peptide mix” value is “PepE had highest activity towards αS1-CN (f1-9) and αS1-CN (f1-6)”.

B4: Lactobacillus helveticus CNRZ32 endopeptidase PepO3 (protein)
chain: MTVRGGAGDITEADLSARPQDNLYLAVNSEWLKNAKIPSDRSRTSSFDGIDLNIEKELMQDFADFADGKKDLPDVPNFEKAVALYKIAKDFDRRNADGADPIQADLHEILGLRNFADFTLKAADFFKNGFPMPFDFSVEADMKNTKIHSLQFGGPGTFLPDTTTYKTPAAEKLLAVLKEQSINLLTMSGISKSEAEDYAEKALAYDAKIAKVVKSAEEWADYPATYNPISRDDFADKFKSFKMDYFLGELFAKKPERVINTEPRYLDYAEELLNEDVFAEIKAWMLVKFVNGVASSLSQEFREAAFPFSQALSGQPELPSGVKQAYHIANSDFSEVVGVYYGQTYFGAEAKADVTDMIHKMLDVYEKRIRENSWLSQATKDKAIVKLRALILKIGYPDKIEEIYDRLTVDPEASLYANEAQFGREQIKYNLEKLDQDVDRSVWLMPGNLVNACYDPQRNDLTFPAAILQKPFYDLKQSRSLNYGGIGVVIAHEISHAFDNNGAQFDEFGNMKNWWTEKDFAEFKKRTQAEIDLFDGIKYGPVTLNGKQIVSENIADQGGLTAAVEANKGEDGNMKELFENFARVWATKQLPESIKTQVSVDVHAPGPERANVQSQCQEEFYKAFDVTEHDGMWLDPEKRVVIW
On to B4, for which, in the series with β-casein (f193-209) [1], the Specific activity (E. coli CFE) (nmoles substrate hydrolyzed/h/mg protein) is 88; the Specific activity (E. coli CFE, control subtracted) (nmoles substrate hydrolyzed/h/mg protein) stood at 88; the “Specific activity (Lc. lactis CFE), Cheddar cheese serum” value was 61 (23)^b, A; the “Specific activity (Lc. lactis CFE), defined peptide mix” value was 40 (6.0)^a, B. For the same protein, in the series with β-casein (f193-209) [1], the “Specific activity (Lc. lactis CFE), single peptide reaction” value is given as 81 (7.0)^a, A and the “hydrolysis in spiked Cheddar cheese serum (RP-HPLC)” value is “hydrolyzed completely within 12 hours”. Moreover, in the series with αS1-casein (f1-9) [2], the Specific activity (E. coli CFE) (nmoles substrate hydrolyzed/h/mg protein) was 79; the Specific activity (E. coli CFE, control subtracted) (nmoles substrate hydrolyzed/h/mg protein) turned out to be 85; the “Specific activity (Lc. lactis CFE), Cheddar cheese serum” value is on record as 63 (25)^b, A; the “Specific activity (Lc. lactis CFE), defined peptide mix” value is recorded as 38 (9.0)^c, A. Moreover, in the series with αS1-casein (f1-9) [2], the “Specific activity (Lc. lactis CFE), individual peptide reaction” value is 41 (19)^b, A.

B5: Lactobacillus helveticus CNRZ32 endopeptidase PepO2 (protein)
chain: MNLAKIRGGAGDITKPDLNARIQDNLYLAVNSDWISKAKIPADRPLISSFSEIDLKIEKELMNDLADFASGKKALPDIPNFDKAIEVYKLAKDFAKRDADGFQPAQADLETLINLKDVDDVKQNLAKLLLRFSFPFLFEVEPDRKNTKTNSLSFDRNSLILPDTTSYQSPSAKQLLDVWQKQTENLLKMAGVEEAAAKKYATDAIALDAKIVKVAKSAEERADDVALYNPIKTNEFEEKTSSLNLGQLLEQLFEKKPNYVVVSEPKFLDHFNELFNQESFDELKGWLISIFINKAAAFLSEEFRQAAFPFKQATYGQKELPSQEKEAYYKANNLFDDVIGVYYGRTYFGEDAKADVEDMIHRMIDVYEQRITNNEWLSPATKEKAITKLRALVLKIGYPNKIDHVYDLFQVTPANEGGNLYSNQANIREVSLKHNFDKLYKPVDRSEWYMPGNLINACYDPQRNDITFPAAILEAPFYDINASRATNYGGIGVVIAHEISHAFDNNGAKYDEFGNMKNWWTKEDFAEFEKRTQAEIDLFDGIKYGPVTLNGKQIVSENIADQGGLTAGIEANKNEHGDMKELFENYARIWASKESPEIIKTIAAFDVHAPGPVRVNVQVQCQPEFYKAFNVQEGDGMWLDPAKRVVI
On to B5, for which, in the series with β-casein (f193-209) [1], the Specific activity (E. coli CFE) (nmoles substrate hydrolyzed/h/mg protein) was 290; the Specific activity (E. coli CFE, control subtracted) (nmoles substrate hydrolyzed/h/mg protein) was 290; the “hydrolysis detected by RP-HPLC (pH 6.5, 37° C.)” value was “significant hydrolysis of both β-CN(f193-209) and αs1-CN(f1-9) was detected with CFEs from E. coli DH5α (pSUW99)”. In the series with αS1-casein (f1-9) [2], the Specific activity (E. coli CFE) (nmoles substrate hydrolyzed/h/mg protein) was 1900; the Specific activity (E. coli CFE, control subtracted) (nmoles substrate hydrolyzed/h/mg protein) is 3700; the “hydrolysis detected by RP-HPLC (pH 6.5, 37° C.)” value was “significant hydrolysis of both β-CN(f193-209) and αs1-CN(f1-9) was detected with CFEs from E. coli DH5α (pSUW99)”.

B6: Lactobacillus helveticus CNRZ32 PepO2 expressed as PpepO3:pepO2 translational fusion in Lactococcus lactis LM0230 (pSUW665) (enzyme)
chain: MNLAKIRGGAGDITKPDLNARIQDNLYLAVNSDWISKAKIPADRPLISSFSEIDLKIEKELMNDLADFASGKKALPDIPNFDKAIEVYKLAKDFAKRDADGFQPAQADLETLINLKDVDDVKQNLAKLLLRFSFPFLFEVEPDRKNTKTNSLSFDRNSLILPDTTSYQSPSAKQLLDVWQKQTENLLKMAGVEEAAAKKYATDAIALDAKIVKVAKSAEERADDVALYNPIKTNEFEEKTSSLNLGQLLEQLFEKKPNYVVVSEPKFLDHFNELFNQESFDELKGWLISIFINKAAAFLSEEFRQAAFPFKQATYGQKELPSQEKEAYYKANNLFDDVIGVYYGRTYFGEDAKADVEDMIHRMIDVYEQRITNNEWLSPATKEKAITKLRALVLKIGYPNKIDHVYDLFQVTPANEGGNLYSNQANIREVSLKHNFDKLYKPVDRSEWYMPGNLINACYDPQRNDITFPAAILEAPFYDINASRATNYGGIGVVIAHEISHAFDNNGAKYDEFGNMKNWWTKEDFAEFEKRTQAEIDLFDGIKYGPVTLNGKQIVSENIADQGGLTAGIEANKNEHGDMKELFENYARIWASKESPEIIKTIAAFDVHAPGPVRVNVQVQCQPEFYKAFNVQEGDGMWLDPAKRVVI
modifications: PpepO3 start and BamHI junction residues
B6: in the series on αS1-casein (f1-9) [3], the “Specific activity (Lc. lactis CFE), Cheddar cheese serum” value was 150 (40)^a, B; the “Specific activity (Lc. lactis CFE), defined peptide mix” value was 84 (20)^b, C; the “Specific activity (Lc. lactis CFE), individual peptide reaction” value is given as 240 (10)^a, A; the “relative activity in the defined peptide mix” value is “PepO2 had highest activity towards peptides αS1-CN (f1-9), and αS1-CN (f1-13)”. In the series with β-casein (f193-209) [4], the “Specific activity (Lc. lactis CFE), Cheddar cheese serum” value is listed as 120 (32)^a, A; the “Specific activity (Lc. lactis CFE), defined peptide mix” value is 42 (10)^a, B; the “Specific activity (Lc. lactis CFE), single peptide reaction” value was 64 (1.5)^a, B; the “hydrolysis in spiked Cheddar cheese serum (RP-HPLC)” value is reported as “hydrolyzed completely within 12 hours”.
